These results are taken from patent US20100330095A1 (U3 PHARMA, published 2010).

Assay [1] concerns the target T1, human receptor tyrosine kinase AXL transcript variant 1 (human, UniProt P30530 26-894).
T1 sequence: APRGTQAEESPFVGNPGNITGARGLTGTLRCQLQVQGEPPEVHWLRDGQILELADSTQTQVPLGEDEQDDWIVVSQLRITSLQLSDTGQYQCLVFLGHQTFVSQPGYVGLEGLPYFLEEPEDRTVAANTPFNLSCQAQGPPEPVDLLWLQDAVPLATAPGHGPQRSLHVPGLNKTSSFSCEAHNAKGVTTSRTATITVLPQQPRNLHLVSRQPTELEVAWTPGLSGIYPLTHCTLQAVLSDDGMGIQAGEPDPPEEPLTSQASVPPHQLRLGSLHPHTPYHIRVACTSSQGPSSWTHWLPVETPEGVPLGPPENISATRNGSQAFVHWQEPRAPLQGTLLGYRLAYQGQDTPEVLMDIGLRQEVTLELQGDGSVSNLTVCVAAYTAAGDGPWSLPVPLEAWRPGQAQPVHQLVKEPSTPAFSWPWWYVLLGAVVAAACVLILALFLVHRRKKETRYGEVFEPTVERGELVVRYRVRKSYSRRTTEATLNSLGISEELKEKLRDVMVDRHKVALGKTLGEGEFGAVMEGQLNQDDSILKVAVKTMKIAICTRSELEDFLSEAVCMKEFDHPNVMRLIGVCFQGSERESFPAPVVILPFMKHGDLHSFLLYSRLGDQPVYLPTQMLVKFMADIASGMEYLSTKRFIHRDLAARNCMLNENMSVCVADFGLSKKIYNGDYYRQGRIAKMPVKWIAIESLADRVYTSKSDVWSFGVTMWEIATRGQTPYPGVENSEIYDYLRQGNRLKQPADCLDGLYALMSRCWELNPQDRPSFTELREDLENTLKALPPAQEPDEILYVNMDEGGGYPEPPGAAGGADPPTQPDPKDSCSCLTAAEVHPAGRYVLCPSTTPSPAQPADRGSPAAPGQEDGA
Briefly: cell-based or functional assay.

For assay [2], the target named is T1, human receptor tyrosine kinase AXL …. Briefly: flow cytometry, NIH3T3-hAXL cells. (In flow cytometry, cells or beads pass a laser one at a time.)
Assay [3] shares this target. Briefly: FACS Scatchard (apparent KD) on human AXL overexpressing NIH3T3 cells. The method, then:
Human AXL overexpression NIH3T3 cells were harvested by incubation with 10 mM EDTA in PBS and resuspended at 6 million cells per ml in FACS buffer (PBS pH 7.4, 3% FCS, 0.1% NaN₃). […] Antibody binding was allowed to proceed for 2 hours on ice. Then, cells were washed twice with 250 μl FACS buffer per well, and resuspended in 200 μl of secondary antibody (anti-rat-PE; Jackson) diluted 1:50 in FACS buffer. After 45 minutes of incubation, cells were again washed twice in FACS buffer and resuspended in […] PBS for FACS analysis. Analysis was carried out on a Beckman-Coulter FACS FC500. To determine the apparent affinity constant KDapp, mean fluorescence values were plotted against the ratio of mean fluorescence and the corresponding antibody concentration ([M]).

B1: III 11D5 (antibody, rat IgG2a, V domains shown)
VH: EVQLQESGPGLVKPSQSLSLTCSVTGYSITSNYWGWIRKFPGNKMEWIGHITNSGNTTYNPSLKSRISISRDTSRNQFFLQLNSVTTEDTATYYCAKGAFDYWGQGVMVTVSS
VL: DIQMTQSPSSMSTSLGDRVTITCRASQDIGNYLSWFQQKVGKSPRRMIYGAIKLAVGVPSRFSGSRSGSDYSLTISSLESEDMAIYYCLQYIQFPLTFGSGTKLELK
notes: rat hybridoma antibody, antagonistic
On to B1, for which the “IC50 of VEGF-A-stimulated HUVEC spheroid sprouting” value in assay [1] was found to be 700 nM. Besides, the FACS shift in assay [2] stood at 8.9. Besides, the Kd in assay [3] stood at 0.81 nM.

B2: I 11B7 (antibody, V domains shown)
VH: EVQLQESGPGLVKPSQSLSLTCSVTGYSITSNYWGWIRKFPGDKMEWMGYITYSGSTSYNPSLKSRISITRDTSKNQFFLQLNSVTSEDTATYYCAITTFYYWGQGVMVTVSS
VL: DIQMTQAPSSLPASLGDRVTITCRASQDIGNYLRWFQQKPGKSPRLMISGATNLAAGVPSRFSGSRSGSDYSLTISSLESEDMADYYCLQSKESPWTFGGGTKLELK
notes: as for B1
As to B2, the “IC50 of VEGF-A-stimulated HUVEC spheroid sprouting” value in assay [1] worked out at 98 nM. In addition, the FACS shift in assay [2] worked out at 36.2. For the same molecule, the Kd in assay [3] was 0.38 nM.

B3: I 10D12 (antibody, V domains shown)
VH: EVQLQESGPGLVKPSQSLSLTCSVTGYSITSNYWGWIRKFPGNKMEWMGYITNSGGTAYNPSLKSRISITRDTSKNQFFLQLNSVIPEDSATYFCSRTPWDWGQGVMVTVSS
VL: DIQMTQAPSSLPASLGDRVTIACRASQDIGNYLRWFQQKPGKSPRLMISGATNLAAGVPSRFSGSRSGSDYSRTISSLESEDMADYYCLQSKESPWTFGGGTKLELK
notes: rat hybridoma antibody, antagonistic; subclass G1
With B3, the FACS shift in assay [2] was 37.5.
